Results from article doi:10.1101/869909.

Biological target: HSP27 ACD domain (α-crystallin domain), monomeric (human)
Assay: ITC

Sequence of HSP27 ACD domain (α-crystallin domain), monomeric (human) (P04792 76-184): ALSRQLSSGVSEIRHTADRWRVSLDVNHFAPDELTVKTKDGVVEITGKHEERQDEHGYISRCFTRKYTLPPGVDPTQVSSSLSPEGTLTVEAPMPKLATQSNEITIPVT

With EITIPVTHE [HSP27 IXI peptide 178-…-186 (F185H), without biotin] the Kd was 14.3 µM.
